Results from the supplement of paper PMC10065799, “High-throughput profiling of sequence recognition by tyrosine kinases and SH2 domains using bacterial peptide display” (eLife, 2023).

Molecular target: Hck (UniProt P08631)
Test: phosphorylation enrichment, bacterial display (enrichment ratio); higher = better substrate or ligand; peptides without Tyr show the background
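Wherever SH2 binding enrichment of the phosphorylated peptide, bacterial display is given: peptide library displayed on the E. coli surface as eCPX fusions, selected cells deep-sequenced, score is each peptide's frequency after selection divided by its frequency in the input.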
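Wherever phosphorylation enrichment, bacterial display is given: 11-residue human phosphosite peptides and single-mutation variants displayed on the E. coli surface, counted by deep sequencing, each peptide's frequency after selection divided by its frequency in the unselected input library; frequency after pTyr selection over input frequency; kinase dosed for 20-30% of maximal phosphorylation in three min.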

Hck, sequence (P08631 whole entry, looked up): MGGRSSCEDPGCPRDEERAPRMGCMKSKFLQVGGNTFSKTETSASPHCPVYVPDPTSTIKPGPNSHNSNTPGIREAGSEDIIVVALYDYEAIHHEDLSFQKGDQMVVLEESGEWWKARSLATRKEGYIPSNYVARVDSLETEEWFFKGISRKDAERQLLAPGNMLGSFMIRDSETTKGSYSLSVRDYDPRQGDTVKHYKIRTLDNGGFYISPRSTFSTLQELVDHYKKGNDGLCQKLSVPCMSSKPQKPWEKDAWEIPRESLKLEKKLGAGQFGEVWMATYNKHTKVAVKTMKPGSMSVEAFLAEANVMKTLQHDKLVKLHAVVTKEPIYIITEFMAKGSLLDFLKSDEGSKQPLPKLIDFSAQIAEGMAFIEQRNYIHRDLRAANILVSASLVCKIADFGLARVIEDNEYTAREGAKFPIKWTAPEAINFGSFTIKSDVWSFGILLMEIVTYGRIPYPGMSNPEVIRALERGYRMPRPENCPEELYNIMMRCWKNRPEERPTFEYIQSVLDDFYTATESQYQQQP

Sequence | phosphorylation enrichment
CERLPYDASKW [FLT1_Y815] | 0.525
SAVTGYRVDVI [FN1_Y937] | 0.374
LFPANYVAPMT [GRAP2_Y324] | 0.551
IHETTHNSIMK [ACTA1_Y281_Y281H] | 0.463
ENAGYYFQVSA | 0.448
CGLPRYRWLTH [TSPAN12_Y143_Y138C] | 0.525
PSPMPYAFCQM [FOXL2_Y215_S217F] | 0.934
KMMGRYEMYAR [UPB1_Y362_T359M] | 0.51
PIPAAYNKYDQ [CDC73_Y290_R292K] | 0.595
RLDGEYFTLQI [TP53_Y327_P322R] | 0.772
SSPRRYTIAAL [TTR_Y125_G121S] | 0.378
RRVLVYGDRGA [QDPR_Y16_G18D] | 0.525
HICTAYKLVLA [DHCR24_Y190_E191K] | 1.47
TTPYNYSYIFK [RAB14_Y8_A4T] | 0.861
KNEKVYTRHGV [FLOT1_Y56_S52N] | 0.344
KDPPDYKFQPR [SOX9_Y172_H169P_YF] | 0.414
TSNQEYLYLSM [FGFR1_Y766_D768Y] | 2.67
HTLQLYRCREE [ALPK3_Y342] | 0.522
ELTAKYLNFFQ [P3H4_Y181_YF] | 0.396
QADIIYVNTQL [MERTK_Y872_V870I] | 0.886
YSTDYYRVGGH [NTRK2_Y707] | 2.55
ARAFIYAIIPA [ACKtide_2014] | 4.01
GRVLGYGAFRK [FLT4_Y853_G857R] | 0.486
GSIQQYTFKQE [PRG4_Y1271_I1272T_YF] | 0.347
ISSLPYMKMIF [SLC4A11_Y853_M848I] | 0.677
GLSDPYVKIHL [SYT2_Y309] | 0.406
IALNSYHSRNC [IFNGR1_Y397] | 0.469
VRFMAYTDETC [F8_Y450_F455C] | 0.662
PSRKDYETYQS [CTNND2_Y1154_P1159S] | 0.764

Molecular target: Grb2 SH2 (UniProt P62993)
Sequence (P62993 whole entry, looked up): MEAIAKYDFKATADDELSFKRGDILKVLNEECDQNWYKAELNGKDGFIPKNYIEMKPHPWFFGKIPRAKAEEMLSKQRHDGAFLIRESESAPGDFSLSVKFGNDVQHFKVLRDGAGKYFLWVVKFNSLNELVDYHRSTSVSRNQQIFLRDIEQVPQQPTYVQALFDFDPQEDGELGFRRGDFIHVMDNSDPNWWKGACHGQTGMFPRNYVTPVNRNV
Test: SH2 binding enrichment of the phosphorylated peptide, bacterial display (enrichment ratio); higher = better substrate or ligand; peptides without Tyr show the background

Sequence | SH2 binding enrichment
CERLPYDASKW [FLT1_Y815] | 0.746
SAVTGYRVDVI [FN1_Y937] | 0.84
LFPANYVAPMT [GRAP2_Y324] | 0.828
IHETTHNSIMK [ACTA1_Y281_Y281H] | 0.736
ENAGYYFQVSA | 0.953
CGLPRYRWLTH [TSPAN12_Y143_Y138C] | 0.838
PSPMPYAFCQM [FOXL2_Y215_S217F] | 0.64
KMMGRYEMYAR [UPB1_Y362_T359M] | 1.29
PIPAAYNKYDQ [CDC73_Y290_R292K] | 0.39
RLDGEYFTLQI [TP53_Y327_P322R] | 0.701
SSPRRYTIAAL [TTR_Y125_G121S] | 0.787
RRVLVYGDRGA [QDPR_Y16_G18D] | 0.838
HICTAYKLVLA [DHCR24_Y190_E191K] | 0.867
TTPYNYSYIFK [RAB14_Y8_A4T] | 0.711
KNEKVYTRHGV [FLOT1_Y56_S52N] | 0.998
KDPPDYKFQPR [SOX9_Y172_H169P_YF] | 0.928
TSNQEYLYLSM [FGFR1_Y766_D768Y] | 0.812
HTLQLYRCREE [ALPK3_Y342] | 0.672
ELTAKYLNFFQ [P3H4_Y181_YF] | 3.9
QADIIYVNTQL [MERTK_Y872_V870I] | 0.916
YSTDYYRVGGH [NTRK2_Y707] | 0.787
ARAFIYAIIPA [ACKtide_2014] | 1.03
GRVLGYGAFRK [FLT4_Y853_G857R] | 0.671
GSIQQYTFKQE [PRG4_Y1271_I1272T_YF] | 0.829
ISSLPYMKMIF [SLC4A11_Y853_M848I] | 1.19
GLSDPYVKIHL [SYT2_Y309] | 0.873
IALNSYHSRNC [IFNGR1_Y397] | 0.917
VRFMAYTDETC [F8_Y450_F455C] | 0.83
PSRKDYETYQS [CTNND2_Y1154_P1159S] | 0.976

Molecular target: SHP2-C SH2
Test: as above

Sequence | SH2 binding enrichment
CERLPYDASKW [FLT1_Y815] | 0.72
SAVTGYRVDVI [FN1_Y937] | 0.514
LFPANYVAPMT [GRAP2_Y324] | 0.835
IHETTHNSIMK [ACTA1_Y281_Y281H] | 0.537
ENAGYYFQVSA | 0.884
CGLPRYRWLTH [TSPAN12_Y143_Y138C] | 0.536
PSPMPYAFCQM [FOXL2_Y215_S217F] | 0.774
KMMGRYEMYAR [UPB1_Y362_T359M] | 0.826
PIPAAYNKYDQ [CDC73_Y290_R292K] | 1.33
RLDGEYFTLQI [TP53_Y327_P322R] | 0.572
SSPRRYTIAAL [TTR_Y125_G121S] | 0.789
RRVLVYGDRGA [QDPR_Y16_G18D] | 0.529
HICTAYKLVLA [DHCR24_Y190_E191K] | 0.56
TTPYNYSYIFK [RAB14_Y8_A4T] | 2.78
KNEKVYTRHGV [FLOT1_Y56_S52N] | 0.749
KDPPDYKFQPR [SOX9_Y172_H169P_YF] | 0.791
TSNQEYLYLSM [FGFR1_Y766_D768Y] | 0.553
HTLQLYRCREE [ALPK3_Y342] | 0.658
ELTAKYLNFFQ [P3H4_Y181_YF] | 1.16
QADIIYVNTQL [MERTK_Y872_V870I] | 0.543
YSTDYYRVGGH [NTRK2_Y707] | 0.922
ARAFIYAIIPA [ACKtide_2014] | 0.777
GRVLGYGAFRK [FLT4_Y853_G857R] | 0.733
GSIQQYTFKQE [PRG4_Y1271_I1272T_YF] | 0.937
ISSLPYMKMIF [SLC4A11_Y853_M848I] | 1.52
GLSDPYVKIHL [SYT2_Y309] | 1.07
IALNSYHSRNC [IFNGR1_Y397] | 0.814
VRFMAYTDETC [F8_Y450_F455C] | 1.03
PSRKDYETYQS [CTNND2_Y1154_P1159S] | 0.899

Molecular target: c-Src SH2
Test: as above

Sequence | SH2 binding enrichment
CERLPYDASKW [FLT1_Y815] | 0.632
SAVTGYRVDVI [FN1_Y937] | 0.452
LFPANYVAPMT [GRAP2_Y324] | 0.663
IHETTHNSIMK [ACTA1_Y281_Y281H] | 0.43
ENAGYYFQVSA | 0.691
CGLPRYRWLTH [TSPAN12_Y143_Y138C] | 0.442
PSPMPYAFCQM [FOXL2_Y215_S217F] | 1.7
KMMGRYEMYAR [UPB1_Y362_T359M] | 1.11
PIPAAYNKYDQ [CDC73_Y290_R292K] | 0.478
RLDGEYFTLQI [TP53_Y327_P322R] | 0.484
SSPRRYTIAAL [TTR_Y125_G121S] | 0.477
RRVLVYGDRGA [QDPR_Y16_G18D] | 0.442
HICTAYKLVLA [DHCR24_Y190_E191K] | 0.45
TTPYNYSYIFK [RAB14_Y8_A4T] | 10.3
KNEKVYTRHGV [FLOT1_Y56_S52N] | 0.585
KDPPDYKFQPR [SOX9_Y172_H169P_YF] | 0.609
TSNQEYLYLSM [FGFR1_Y766_D768Y] | 0.447
HTLQLYRCREE [ALPK3_Y342] | 0.406
ELTAKYLNFFQ [P3H4_Y181_YF] | 0.562
QADIIYVNTQL [MERTK_Y872_V870I] | 0.475
YSTDYYRVGGH [NTRK2_Y707] | 0.691
ARAFIYAIIPA [ACKtide_2014] | 0.764
GRVLGYGAFRK [FLT4_Y853_G857R] | 0.549
GSIQQYTFKQE [PRG4_Y1271_I1272T_YF] | 0.53
ISSLPYMKMIF [SLC4A11_Y853_M848I] | 1.61
GLSDPYVKIHL [SYT2_Y309] | 0.836
IALNSYHSRNC [IFNGR1_Y397] | 0.534
VRFMAYTDETC [F8_Y450_F455C] | 0.627
PSRKDYETYQS [CTNND2_Y1154_P1159S] | 0.746
